From paper doi:10.1101/2022.09.13.507756 (bioRxiv, 2022)

B1: PaCDTΔC (enzyme, Pseudomonas aeruginosa, UniProt Q01269 26-259, looked up)
chain: QESRLDRILESGVLRVATTGDYKPFSYRTEEGGYAGFDVDMAQRLAESLGAKLVVVPTSWPNLMRDFADDRFDIAMSGISINLERQRQAYFSIPYLRDGKTPITLCSEEARFQTLEQIDQPGVTAIVNPGGTNEKFARANLKKARILVHPDNVTIFQQIVDGKADLMMTDAIEARLQSRLHPELCAVHPQQPFDFAEKAYLLPRDEAFKRYVDQWLHIAEQSGLLRQRMEHWLE
B2: Cyclohexadienyl dehydratase from Pseudomonas aeruginosa (PaCDT) (enzyme, UniProt Q01269 26-268, looked up)
chain: QESRLDRILESGVLRVATTGDYKPFSYRTEEGGYAGFDVDMAQRLAESLGAKLVVVPTSWPNLMRDFADDRFDIAMSGISINLERQRQAYFSIPYLRDGKTPITLCSEEARFQTLEQIDQPGVTAIVNPGGTNEKFARANLKKARILVHPDNVTIFQQIVDGKADLMMTDAIEARLQSRLHPELCAVHPQQPFDFAEKAYLLPRDEAFKRYVDQWLHIAEQSGLLRQRMEHWLEYRWPTAHGK
B3: Ws0279 (natural protein, UniProt Q7MAG0 24-258, looked up)
chain: QKSTLNEIIKRGELRVGLEPGYLPFEMKDKKGNVIGFDVDLAREMAKAMGVKLKLVPTSWDGLIPGLVTEKFDIIISGMTISQERNLRVNFVEPYIVVGQSLLVKKGLEKGVKSYKDLDKPELTLVTKFGVSAEYAAKRLFKNAKLKTYDTEAEAVQEVLNGKADMFIFDLPFNVAFMAQKGQGYLVHLDTSLTYEPLGWAIKKGDPDFLNWLNHFLAQIKHDGSYDELYERWFV

Assays:
SEC = target: the molecule itself; experiment: SEC
SEC + SEC-MALS = target: the molecule itself; experiment: SEC + SEC-MALS

Protein	stoichiometry N (SEC)	stoichiometry N (SEC + SEC-MALS)
B1	3	–
B2	–	3
B3	3	–
